{"source": "paper PMC5944921", "key": {"[1]": {"target": "GLA cross-linked soluble BG505 SOSIP trimer (GLA-SOSIP trimer) (HIV-1 BG505)", "test": "SPR; ProteOn XPR36, GLC chip with human antibody capture kit; 2G12 captured, then about 600 RU of trimer; dilution series of Fab passed over for 180 s, 600 s buffer; HBS-EP+ pH 7.4 with 1 mg/mL BSA; binding index = signal ratio GLA-SOSIP trimer / SOSIP trimer"}, "[2]": {"target": "GLA cross-linked soluble BG505 SOSIP trimer (GLA-SOSIP trimer) (HIV-1 BG505)", "test": "ELISA; capture ELISA: plates coated with 4 ug/mL mAb 2G12, SOSIP or GLA-SOSIP trimer (0.2 ug/mL) captured, titration series of biotinylated mAbs or ligand; binding index = AUC on GLA-SOSIP trimer / AUC on SOSIP trimer"}}, "data": [{"substance": "PGT145 Fab", "values": [{"measurement": "fold loss of binding against SOSIP trimer (SPR binding index)", "setting": "[1]", "result": 5.3, "unit": "fold"}]}, {"substance": "PGT145 (mAb) (antibody)", "values": [{"measurement": "fold loss of binding against SOSIP trimer (ELISA binding index)", "setting": "[2]", "result": 3.3, "unit": "fold"}]}]}
